Values of other authors in article PMC2744109.
pKd: −log10 of the molar value. “And” between values parts separate entries of the source, which are not always exact repeats. Equal entries are not always repeated.

Key:
[1] = molecular target: Factor VIII (Homo sapiens) (UniProt P00451)
[2] = molecular target: LRP1 CR5-CR7 (Homo sapiens) (UniProt Q07954)
[3] = molecular target: LRP1 CR7-CR8 (Homo sapiens) (UniProt Q07954); assay: ITC

Chain of UniProt P00451 (P00451 760-1332): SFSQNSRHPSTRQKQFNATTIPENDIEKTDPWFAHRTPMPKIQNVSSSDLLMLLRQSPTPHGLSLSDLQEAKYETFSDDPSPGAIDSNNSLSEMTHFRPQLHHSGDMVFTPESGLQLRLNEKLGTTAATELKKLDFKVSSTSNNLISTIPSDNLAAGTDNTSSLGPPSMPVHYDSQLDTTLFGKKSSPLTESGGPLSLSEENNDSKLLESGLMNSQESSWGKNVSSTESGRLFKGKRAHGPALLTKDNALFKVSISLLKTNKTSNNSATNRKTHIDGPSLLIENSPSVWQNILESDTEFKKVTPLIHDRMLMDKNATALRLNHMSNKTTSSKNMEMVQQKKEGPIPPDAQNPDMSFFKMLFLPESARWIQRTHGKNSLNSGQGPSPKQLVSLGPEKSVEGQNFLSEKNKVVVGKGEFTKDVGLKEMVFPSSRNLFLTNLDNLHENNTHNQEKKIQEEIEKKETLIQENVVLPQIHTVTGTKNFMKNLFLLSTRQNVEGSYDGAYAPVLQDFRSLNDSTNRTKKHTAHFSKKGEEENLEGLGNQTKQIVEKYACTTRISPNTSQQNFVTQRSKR
Chain of LRP1 (Q07954 20-4544): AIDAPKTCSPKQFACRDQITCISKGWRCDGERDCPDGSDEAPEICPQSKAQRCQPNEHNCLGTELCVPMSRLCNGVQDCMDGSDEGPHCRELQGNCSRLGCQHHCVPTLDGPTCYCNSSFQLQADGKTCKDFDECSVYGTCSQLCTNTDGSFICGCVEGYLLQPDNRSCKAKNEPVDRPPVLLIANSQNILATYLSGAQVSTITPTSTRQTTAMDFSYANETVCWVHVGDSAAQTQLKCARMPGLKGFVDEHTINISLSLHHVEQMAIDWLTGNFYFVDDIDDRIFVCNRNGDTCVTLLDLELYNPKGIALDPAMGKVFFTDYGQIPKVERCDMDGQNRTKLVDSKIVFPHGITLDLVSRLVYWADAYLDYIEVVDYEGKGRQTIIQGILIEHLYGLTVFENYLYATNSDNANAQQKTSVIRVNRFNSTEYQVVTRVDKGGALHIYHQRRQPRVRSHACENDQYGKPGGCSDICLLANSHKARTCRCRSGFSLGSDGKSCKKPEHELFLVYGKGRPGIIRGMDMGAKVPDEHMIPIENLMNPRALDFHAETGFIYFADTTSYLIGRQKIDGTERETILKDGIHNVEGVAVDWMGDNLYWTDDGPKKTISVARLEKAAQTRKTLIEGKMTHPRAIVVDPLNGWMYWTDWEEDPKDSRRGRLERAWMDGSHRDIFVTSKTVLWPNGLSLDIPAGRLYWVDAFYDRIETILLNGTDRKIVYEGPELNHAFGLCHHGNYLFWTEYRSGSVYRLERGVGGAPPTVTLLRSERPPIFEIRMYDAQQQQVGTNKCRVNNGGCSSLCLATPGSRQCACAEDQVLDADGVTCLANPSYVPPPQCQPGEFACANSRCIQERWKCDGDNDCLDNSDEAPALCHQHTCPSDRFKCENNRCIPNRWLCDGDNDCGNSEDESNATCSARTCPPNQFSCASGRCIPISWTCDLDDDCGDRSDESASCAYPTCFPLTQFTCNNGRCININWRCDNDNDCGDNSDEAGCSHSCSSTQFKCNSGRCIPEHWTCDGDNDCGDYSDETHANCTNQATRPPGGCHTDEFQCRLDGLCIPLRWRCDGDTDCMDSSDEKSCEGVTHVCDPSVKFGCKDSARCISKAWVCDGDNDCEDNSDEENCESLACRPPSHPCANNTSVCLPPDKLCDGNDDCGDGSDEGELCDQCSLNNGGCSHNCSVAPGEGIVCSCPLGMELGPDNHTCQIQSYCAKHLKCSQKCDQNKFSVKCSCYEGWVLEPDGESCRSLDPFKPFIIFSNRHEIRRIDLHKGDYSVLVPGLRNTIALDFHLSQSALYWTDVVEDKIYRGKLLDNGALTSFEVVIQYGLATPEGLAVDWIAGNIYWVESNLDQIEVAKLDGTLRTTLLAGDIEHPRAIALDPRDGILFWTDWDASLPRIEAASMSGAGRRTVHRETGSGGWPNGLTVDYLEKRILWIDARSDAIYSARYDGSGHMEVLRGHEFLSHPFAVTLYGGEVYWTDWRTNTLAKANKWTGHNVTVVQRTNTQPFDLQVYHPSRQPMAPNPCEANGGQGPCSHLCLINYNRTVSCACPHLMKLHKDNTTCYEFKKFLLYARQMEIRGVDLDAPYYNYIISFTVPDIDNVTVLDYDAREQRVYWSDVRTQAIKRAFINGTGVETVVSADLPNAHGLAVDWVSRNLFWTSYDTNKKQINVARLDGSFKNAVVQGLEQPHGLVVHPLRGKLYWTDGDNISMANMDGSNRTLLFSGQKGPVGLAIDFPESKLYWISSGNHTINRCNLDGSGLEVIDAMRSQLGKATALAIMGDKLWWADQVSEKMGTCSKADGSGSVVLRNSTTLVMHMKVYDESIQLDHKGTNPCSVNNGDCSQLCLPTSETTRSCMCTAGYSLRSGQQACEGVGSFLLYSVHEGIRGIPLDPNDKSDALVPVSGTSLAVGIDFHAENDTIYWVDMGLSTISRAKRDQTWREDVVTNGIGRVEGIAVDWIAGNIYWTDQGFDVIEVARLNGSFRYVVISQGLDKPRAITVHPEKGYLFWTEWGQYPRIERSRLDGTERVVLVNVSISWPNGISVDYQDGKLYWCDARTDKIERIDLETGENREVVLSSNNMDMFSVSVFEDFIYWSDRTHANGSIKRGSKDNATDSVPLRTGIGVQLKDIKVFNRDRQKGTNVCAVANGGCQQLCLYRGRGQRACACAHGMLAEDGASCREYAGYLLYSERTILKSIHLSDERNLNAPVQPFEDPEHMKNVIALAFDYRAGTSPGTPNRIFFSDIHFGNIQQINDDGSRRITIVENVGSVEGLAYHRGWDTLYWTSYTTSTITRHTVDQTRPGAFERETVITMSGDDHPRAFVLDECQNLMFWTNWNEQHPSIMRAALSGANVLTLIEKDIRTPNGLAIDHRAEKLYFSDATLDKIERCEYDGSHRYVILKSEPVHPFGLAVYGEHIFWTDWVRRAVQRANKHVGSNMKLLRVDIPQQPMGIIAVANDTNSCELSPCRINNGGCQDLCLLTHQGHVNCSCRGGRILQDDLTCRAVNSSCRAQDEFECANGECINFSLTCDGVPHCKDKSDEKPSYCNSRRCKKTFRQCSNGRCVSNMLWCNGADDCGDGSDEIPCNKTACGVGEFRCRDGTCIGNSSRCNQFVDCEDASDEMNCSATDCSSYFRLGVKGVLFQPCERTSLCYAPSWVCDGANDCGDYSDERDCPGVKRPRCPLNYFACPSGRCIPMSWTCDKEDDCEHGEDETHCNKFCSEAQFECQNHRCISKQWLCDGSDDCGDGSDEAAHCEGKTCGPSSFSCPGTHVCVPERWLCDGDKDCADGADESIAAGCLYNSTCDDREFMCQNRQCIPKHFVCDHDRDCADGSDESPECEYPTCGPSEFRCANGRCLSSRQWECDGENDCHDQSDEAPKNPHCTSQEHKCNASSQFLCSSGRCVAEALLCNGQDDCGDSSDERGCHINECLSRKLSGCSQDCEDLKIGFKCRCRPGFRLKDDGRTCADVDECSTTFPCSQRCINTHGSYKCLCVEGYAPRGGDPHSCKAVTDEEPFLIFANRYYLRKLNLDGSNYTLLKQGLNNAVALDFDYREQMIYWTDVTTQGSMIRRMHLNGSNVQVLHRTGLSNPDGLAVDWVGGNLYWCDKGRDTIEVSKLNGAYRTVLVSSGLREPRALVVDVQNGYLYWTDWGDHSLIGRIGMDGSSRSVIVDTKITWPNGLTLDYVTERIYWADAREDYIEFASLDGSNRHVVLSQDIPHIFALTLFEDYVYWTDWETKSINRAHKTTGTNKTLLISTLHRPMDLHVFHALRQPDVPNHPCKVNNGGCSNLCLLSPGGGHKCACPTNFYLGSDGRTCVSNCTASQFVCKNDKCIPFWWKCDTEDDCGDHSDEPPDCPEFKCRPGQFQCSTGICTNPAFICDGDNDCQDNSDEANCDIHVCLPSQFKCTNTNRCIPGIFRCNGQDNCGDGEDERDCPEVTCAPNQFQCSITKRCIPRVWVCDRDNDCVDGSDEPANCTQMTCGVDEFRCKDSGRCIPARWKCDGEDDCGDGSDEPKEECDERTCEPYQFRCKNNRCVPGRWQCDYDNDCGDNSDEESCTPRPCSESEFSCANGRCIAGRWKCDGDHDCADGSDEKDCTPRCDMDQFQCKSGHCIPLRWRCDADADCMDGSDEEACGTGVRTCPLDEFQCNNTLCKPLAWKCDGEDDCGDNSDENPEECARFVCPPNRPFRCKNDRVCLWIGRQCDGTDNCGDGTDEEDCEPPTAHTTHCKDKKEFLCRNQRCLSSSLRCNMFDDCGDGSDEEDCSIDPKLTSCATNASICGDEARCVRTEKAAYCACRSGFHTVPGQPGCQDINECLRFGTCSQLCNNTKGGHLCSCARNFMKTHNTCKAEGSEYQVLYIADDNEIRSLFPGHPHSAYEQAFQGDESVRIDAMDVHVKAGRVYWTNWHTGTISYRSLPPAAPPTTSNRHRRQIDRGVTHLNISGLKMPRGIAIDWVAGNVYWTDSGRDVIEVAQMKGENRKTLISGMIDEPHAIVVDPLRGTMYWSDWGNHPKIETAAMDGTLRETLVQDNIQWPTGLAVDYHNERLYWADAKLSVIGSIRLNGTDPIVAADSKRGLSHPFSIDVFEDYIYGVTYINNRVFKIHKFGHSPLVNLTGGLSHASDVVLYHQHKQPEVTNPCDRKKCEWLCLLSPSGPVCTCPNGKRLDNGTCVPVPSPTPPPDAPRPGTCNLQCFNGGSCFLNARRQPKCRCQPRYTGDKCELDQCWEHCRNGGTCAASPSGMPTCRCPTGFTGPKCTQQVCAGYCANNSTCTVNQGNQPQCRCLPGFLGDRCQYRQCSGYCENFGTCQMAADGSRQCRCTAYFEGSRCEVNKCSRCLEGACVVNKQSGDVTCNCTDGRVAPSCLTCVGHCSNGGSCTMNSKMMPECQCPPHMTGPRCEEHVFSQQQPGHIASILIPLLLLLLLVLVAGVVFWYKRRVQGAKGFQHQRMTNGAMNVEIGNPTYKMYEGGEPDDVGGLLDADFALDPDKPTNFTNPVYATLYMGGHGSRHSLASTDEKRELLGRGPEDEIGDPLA

Row | Substance | pKd [1] | pKd [2] | pKd [3]
1 | LRP1 (from UniProt Q07954) | 6.94 and 7.22 | – | –
2 | RAP (from UniProt P30533) | – | 8.80 | 6.00
3 | RAP D3 (from UniProt P30533) | – | – | 6.00
